This is an account of results in article PMC3148273.

Substrate in this data set: CCCCCCCCCCCCC/C=C/[C@@H](O)[C@@H](N)CO
Put plainly: purified SK2 Michaelis-Menten kinetics with [γ-32P]ATP. The class given is biochemical, Homo sapiens. The note with it: Mg2+.

B1: sphingosine kinase 2 (SK2) (Homo sapiens) (protein)
chain: MNGHLEAEEQQDQRPDQELTGSWGHGPRSTLVRAKAMAPPPPPLAASTPLLHGEFGSYPARGPRFALTLTSQALHIQRLRPKPEARPRGGLVPLAEVSGCCTLRSRSPSDSAAYFCIYTYPRGRRGARRRATRTFRADGAATYEENRAEAQRWATALTCLLRGLPLPGDGEITPDLLPRPPRLLLLVNPFGGRGLAWQWCKNHVLPMISEAGLSFNLIQTERQNHARELVQGLSLSEWDGIVTVSGDGLLHEVLNGLLDRPDWEEAVKMPVGILPCGSGNALAGAVNQHGGFEPALGLDLLLNCSLLLCRGGGHPLDLLSVTLASGSRCFSFLSVAWGFVSDVDIQSERFRALGSARFTLGTVLGLATLHTYRGRLSYLPATVEPASPTPAHSLPRAKSELTLTPDPAPPMAHSPLHRSVSDLPLPLPQPALASPGSPEPLPILSLNGGGPELAGDWGGAGDAPLSPDPLLSSPPGSPKAALHSPVSEGAPVIPPSSGLPLPTPDARVGASTCGPPDHLLPPLGTPLPPDWVTLEGDFVLMLAISPSHLGADLVAAPHARFDDGLVHLCWVRSGISRAALLRLFLAMERGSHFSLGCPQLGYAAARAFRLEPLTPRGVLTVDGEQVEYGPLQAQMHPGIGTLLTGPPGCPGREP
Consider B1, for which the Km (in general, the concentration of substrate that gives half-maximal velocity) worked out at 10.5 µM.
